“Also recorded” adds a separate entry of the source.
Experiments:
[1] = system: lung cancer (A549), liver cancer (HepG2), and colon cancer (HCT-116) cells; assay: WST-1 cell proliferation assay, transient over-expression in multiple cell lines; assay type: cell-based; details: genetic overexpression in multiple cell lines (A549, HepG2, HCT-116); WST-1 48 hours after transfection; vs pcDNA3.1-Myc negative control
Method: FIGS. 2A-2C show analysis of cell viability using the WST-1 assay on lung cancer (A549), liver cancer (HepG2), and colon cancer (HCT-116). Cells were transfected with SEQ ID NO: 4538, SEQ ID NO: 5392, and SEQ ID NO: 4335 individually. pcDNA3.1-Myc tagged was used for negative control. After plasmid transfection, cell proliferation was measured 48 hours later using WST-1 assay. Data are presented as the mean±SD of three independent experiments performed in triplicate. FIG. 2A) WST-1 results in HCT-116 cells. Top: low serum, Bottom: High serum. FIG. 2B) WST-1 results in HepG2 cells. Top: low serum, Bottom: High serum. FIG. 2C) WST-1 results in A549 cells. Top: low serum, Bottom: High serum.
Experimental Design: Protein overexpression plasmids encoding Target Proteins or controls were transiently transfected into multiple cell lines. 24 hours later proliferation was measured using WST-1 assay.
(§1) Materials and Methods: Seed the cells of interest into 96-well plate at a density of 4,000 cells per well in 100 μL of cell culture medium. Incubate the cells in a humidified incubator at 37° C. with 5% CO2 for 24 hours. Dilute the Lipofectamine 3000 (Thermo Fisher) in Opti-MEM medium (Thermo Fisher) to a final concentration of 30 μL/mL. […] Measure the absorbance at 450 nm using a microplate reader. A reference wavelength of 650 nm can be used to correct for background absorbance. Calculate the percentage of viable cells in each well by subtracting the absorbance of the blank (medium only) from the absorbance of each well and expressing the results as a percentage of the control group.

[2] = system: colon cancer cell line HCT116 cells; assay: WST-1 cell proliferation assay, transient over-expression in HCT116; assay type: cell-based; details: transient over-expression from pcDNA3.1 plasmid with Lipofectamine 3000 in HCT116; WST-1 48 hours after transfection; high serum conditions; vs control
Method: WST-1 assay on HCT-116 to examine their cell viability and growth when transiently over-expressed SEQ ID NO: 5391 using Lipofectamine 3000. After plasmid transfection, cell proliferation was measured 48 hours later using WST-1 assay. Data are presented as the mean±SD of three independent experiments performed in triplicate.
Protein overexpression plasmids encoding Target Proteins or controls were transiently transfected into multiple cell lines. 24 hours later proliferation was measured using WST-1 assay.
as §1, with “Seed” for “Materials and Methods: Seed”

B1: SEQ ID NO: 5392: target protein, extracellular transmembrane protein, over-expressed from plasmid (protein, listed as Homo sapiens)
chain: MVEKSHPSSLPTLPQPLNHCPETYMLLSAAPSGASQLLSTLTLFLKKHRMDIRTISLRMLLSHTGKLAL
Question: Which “proliferation of cells (WST-1 assay)” value [1] does the source give for B1 here?
Answer: Its value is “significantly increases the proliferation”.

B2: SEQ ID NO: 5391: novel, un-annotated target protein (predicted TM protein) carrying a TCGA mutation site, over-expressed from pcDNA3.1 plasmid (protein, listed as Homo sapiens)
chain: LLLLIIWVRVTFMSCSTHREGLQLRYSLLKPARPRTHREEETTPDAPPLRAVTLTVKVCGITPEVRETTNPPEETPDASEHLKEQTLDTPSLRTETPRQFAASFLKAVRPRTHQFWTQKDLSRLRKWQAIYEEGRDSKRWSQVL
Question: Which “proliferation of colon cancer cells (WST-1 assay)” value [2] does the source give for B2 here?
Answer: The value was “significantly increases the proliferation; also recorded: increases the proliferation of colon cancer cells”.

B3: SEQ ID NO: 5391_P31L: mutant version of SEQ ID NO: 5391 that contains the TCGA P31L mutation (protein, listed as Homo sapiens)
chain: LLLLIIWVRVTFMSCSTHREGLQLRYSLLKLARPRTHREEETTPDAPPLRAVTLTVKVCGITPEVRETTNPPEETPDASEHLKEQTLDTPSLRTETPRQFAASFLKAVRPRTHQFWTQKDLSRLRKWQAIYEEGRDSKRWSQVL
Question: With B3 as the molecule, how does the “proliferation of colon cancer cells (WST-1 assay)” value [2] read?
Answer: Its value is “effect on proliferation is significantly more pronounced”.

B4: SEQ ID NO: 4538: target protein, extracellular transmembrane protein, over-expressed from plasmid (protein, listed as Homo sapiens)
chain: LARLFLRPRGPRSPIIQFRRVTGAAVASQGAGSLSPALLPLAPSPRPRRAGLRGQGPSGEGYHLTWKKMSSLEKKHSNVIVQNSLNIHNR
Question: B4 was tested. Which “proliferation of cells (WST-1 assay)” value [1] did it give?
Answer: The value was “significantly increases the proliferation”.

B5: SEQ ID NO: 4335: target protein, extracellular transmembrane protein, over-expressed from plasmid (protein, listed as Homo sapiens)
chain: MNLNPRLRLQVISFHPHPKALAVTLLPALTQSLCLCMASCVYSGPKGFLFLFFPQTAQEKHMKNIT
Question: For B5, which “proliferation of cells (WST-1 assay)” value [1] is on record?
Answer: The value was “significantly increases the proliferation”.
